Laboratory results as given in patent publication US20230257479A1 (Genmab, published 2023).
Where a chain is given by its changes, count along the chain named. Names and notes keep the numbering of the source.

T1: human 5T4ECDHis (mature protein of SEQ ID NO: 99) (human, UniProt Q13641 32-355)
T1 construct: ECD of human 5T4 (aa 1-355 of Uniprot Q13641) with C-terminal His tag; residues 1-31 are the signal peptide; also called ECD of human 5T4 with a C-terminal His tag
T1 sequence: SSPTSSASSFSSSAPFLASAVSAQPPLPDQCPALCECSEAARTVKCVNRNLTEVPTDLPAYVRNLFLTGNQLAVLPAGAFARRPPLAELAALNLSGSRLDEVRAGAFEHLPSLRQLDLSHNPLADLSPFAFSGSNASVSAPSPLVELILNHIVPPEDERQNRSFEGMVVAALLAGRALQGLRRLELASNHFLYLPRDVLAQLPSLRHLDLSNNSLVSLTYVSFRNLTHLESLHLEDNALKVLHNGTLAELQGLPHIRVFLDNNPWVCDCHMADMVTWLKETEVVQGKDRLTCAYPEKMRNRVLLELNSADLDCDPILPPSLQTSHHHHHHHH

T2: recombinant cynomolgus monkey 5T4 protein (Cusabio; cat. no. CSB-MP024093MOV) (cynomolgus monkey, UniProt Q4R8Y9 35-355)
T2 construct: extracellular domain; Bought protein; also called cynomolgus 5T4; cynomolgus monkey 5T4 extracellular domain
T2 sequence (looked up): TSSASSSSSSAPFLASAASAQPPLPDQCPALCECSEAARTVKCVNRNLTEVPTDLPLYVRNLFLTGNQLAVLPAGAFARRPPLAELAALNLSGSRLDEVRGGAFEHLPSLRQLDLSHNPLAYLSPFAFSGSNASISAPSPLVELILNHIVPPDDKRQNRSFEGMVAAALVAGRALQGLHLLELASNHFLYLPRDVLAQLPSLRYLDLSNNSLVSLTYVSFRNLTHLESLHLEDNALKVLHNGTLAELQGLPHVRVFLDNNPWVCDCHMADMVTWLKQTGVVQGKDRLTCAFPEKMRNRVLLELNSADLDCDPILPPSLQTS

T3: full length chicken 5T4 (SEQ ID NO: 3) on transfected HEK-293 cells (chicken)
T3 construct: Uniprot R4GM46; residues 1-27 are the signal peptide
T3 chain: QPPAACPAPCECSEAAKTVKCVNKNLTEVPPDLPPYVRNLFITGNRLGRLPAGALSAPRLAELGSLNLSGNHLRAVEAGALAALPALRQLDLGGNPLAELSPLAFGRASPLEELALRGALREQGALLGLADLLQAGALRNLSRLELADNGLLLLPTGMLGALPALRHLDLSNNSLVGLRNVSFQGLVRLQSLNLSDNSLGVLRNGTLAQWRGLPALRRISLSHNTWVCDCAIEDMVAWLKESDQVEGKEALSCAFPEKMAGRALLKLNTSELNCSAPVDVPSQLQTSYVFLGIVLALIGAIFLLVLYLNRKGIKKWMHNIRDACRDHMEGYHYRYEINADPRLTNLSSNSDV

T4: full length human 5T4 (SEQ ID NO: 1) on cells (human, UniProt Q13641 32-420)
T4 construct: Uniprot Q13641; residues 1-31 are the signal peptide; Used both for transfected HEK-293 cells and for 5T4-expressing human tumor cell lines
T4 sequence: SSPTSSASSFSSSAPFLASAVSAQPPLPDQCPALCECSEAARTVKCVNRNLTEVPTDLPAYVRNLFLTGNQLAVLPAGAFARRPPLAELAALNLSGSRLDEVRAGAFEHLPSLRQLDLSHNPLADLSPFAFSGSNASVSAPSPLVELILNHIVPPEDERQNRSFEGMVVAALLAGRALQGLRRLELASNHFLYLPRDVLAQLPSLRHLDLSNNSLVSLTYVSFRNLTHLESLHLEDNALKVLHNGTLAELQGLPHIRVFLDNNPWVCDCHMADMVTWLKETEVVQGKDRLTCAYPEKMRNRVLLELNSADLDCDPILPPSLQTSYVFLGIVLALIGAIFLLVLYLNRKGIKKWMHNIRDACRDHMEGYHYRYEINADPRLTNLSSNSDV

B1: IgG1-5T4-207-FEAR (antibody, V domains shown)
VH: QVQLQQWGAGLLKPSETLSLTCAVYGGSFSGYYWTWIRQPPGKGLEWIGEIDHSESTNYNPSLKSRVTISVDTSKNQFSLKLSSVTAADTAVYYCAGWFGELYHYYYGMDVWGQGTTVTVSS
VL: EIVLTQSPATLSLSPGERATLSCRASQSVSSYLAWYQQKPGQAPRLLIYDASNRATGIPARFSGSGSGTDFTLTISSLEPEDFAVYYCQQRSNWPLTFGGGTKVEIKR
notes: Monospecific, bivalent IgG1 FEAR
B2: IgG1-5T4-226-FEAR (antibody, V domains shown)
VH: B1 VH with T35S, E55G, G97A, Y103W, H104D
VL: EIVLTQSPATLSLSPGERATLSCRASQSVSSFLAWYQQKPGQAPRLLIYDASNRATGIPARFSGSGSGTDFTLTISSLEPEDFAVYYCQQRSNWPLTFGQGTRLEIK
notes: Monospecific, bivalent human IgG1 kappa with L234F, L235E, D265A, K409R (FEAR); also called IgG1-5T4-226-FEAR-FITC

Key:
[1] = molecular target: T1, human 5T4ECDHis (mature protein of SEQ …); assay: BLI, antibody on anti-human IgG Fc Capture biosensor, antigen in solution
Experimental: (§1) Affinities of the 5T4 antibodies for recombinant 5T4 protein were determined using label-free biolayer interferometry on an Octet HTX instrument (ForteBio, Portsmouth, UK). 5T4 antibodies (1 µg/mL) were immobilized for 600 seconds on anti-human IgG Fc Capture biosensors (ForteBio). […] Data were analyzed with Data Analysis Software v9.0.0.12 (ForteBio). Values of reference wells containing only Sample Diluent during the association and dissociation steps were subtracted from values of wells containing antigen, for each antibody separately. The Y-axis was aligned to the last 10 s of the baseline and Interstep Correction alignment to dissociation as well as Savitzky-Golay filtering was applied. Responses < 0.05 nm were excluded from analysis. The data were fitted using the 1:1 model and a global full fit with 200 s association time and 1000 s or 50 s dissociation time as Window of Interest. The fit with the full dissociation time (1000 s) as Window of Interest was used by default.

[2] = molecular target: T1, human 5T4ECDHis (mature protein of SEQ …); assay: BLI cross-block; competitor (immobilised): IgG1-5T4-207-FEAR
[3] = molecular target: T1, human 5T4ECDHis (mature protein of SEQ …); assay: BLI cross-block; competitor (immobilised): IgG1-5T4-059-FEAR
[4] = molecular target: T1, human 5T4ECDHis (mature protein of SEQ …); assay: BLI cross-block; competitor (immobilised): IgG1-5T4-A1-F405L
[5] = molecular target: T1, human 5T4ECDHis (mature protein of SEQ …); assay: BLI cross-block; competitor (immobilised): IgG1-5T4-085-FEAR
Experimental: (§2) Antibody cross-block analysis (epitope binning) was performed using biolayer interferometry on an Octet HTX instrument (ForteBio). 5T4 antibodies (20 µg/mL in 10 mM sodium acetate buffer pH 6.0, ForteBio) were immobilized on Amine-Reactive 2nd Generation (AR2G) biosensors (ForteBio) according to the manufacturer’s instructions. […] Next, the association response of a second 5T4 antibody (10 µg/mL) was determined for 500 s. Biosensors were regenerated by 3 times 5 s exposure to 10 mM glycine pH 2.5 followed by Sample Diluent, and the measurement was repeated with a new set of second 5T4 antibodies starting from the baseline step. Each biosensor was used four times. Measurements were performed at 30° C. using a shaker speed of 1000 rpm. Data were analyzed using Data Analysis Software v9.0.0.12 (ForteBio). The Y-axis was aligned to the association step and Savitzky-Golay filtering was applied. The response of Sample Diluent during the association step was subtracted from the association response of the second antibody in order to correct for the dissociation of 5T4ECDHis from the immobilized antibody. […] In general, responses > 0.1 nm were considered non-blocking antibody pairs (white), while responses between -0.1 and 0.1 nm were considered to be blocking antibody pairs (dark grey). […] In some cases, the data curves needed visual inspection by an expert to assign blocking, non-blocking or displacement properties to antibody pairs.

[6] = molecular target: T1, human 5T4ECDHis (mature protein of SEQ …); assay: BLI cross-block; competitor (immobilised): IgG1-5T4-H8-FEAR
[7] = molecular target: T2, recombinant cynomolgus monkey 5T4 …; assay: BLI, antibody on anti-human IgG Fc Capture biosensor, antigen in solution
Experimental: as §1

[8] = molecular target: T1, human 5T4ECDHis (mature protein of SEQ …); assay: BLI cross-block; competitor (immobilised): IgG1-5T4-076-FEAR
[9] = molecular target: T1, human 5T4ECDHis (mature protein of SEQ …); assay: BLI cross-block; competitor (immobilised): IgG1-5T4-127-FEAR
Experimental: as §2

[10] = molecular target: T3, full length chicken 5T4 (SEQ ID NO: 3) …; assay: flow cytometry, HEK-293 cells transfected with chicken 5T4, PE secondary
Experimental: After incubation with R-Phycoerythrin (PE)-conjugated goat-anti-human IgG F(ab′)2, the mean fluorescence intensity (MFI) was determined by flow cytometry.
Cells were washed twice in staining buffer, re-suspended in 20 µL staining buffer and analyzed on an iQue screener (Intellicyt Corporation, USA). Binding curves were analyzed by non-linear regression (sigmoidal dose-response with variable slope) using GraphPad Prism V7.02 software (GraphPad Software, San Diego, CA, USA).

[11] = molecular target: T1, human 5T4ECDHis (mature protein of SEQ …); assay: BLI cross-block; competitor (immobilised): IgG1-5T4-106-FEAR
Experimental: as §2

[12] = molecular target: T1, human 5T4ECDHis (mature protein of SEQ …); assay: BLI cross-block; competitor (immobilised): IgG1-5T4-226-FEAR
Experimental: as §2

[13] = molecular target: T4, full length human 5T4 (SEQ ID NO: 1) on …; assay: flow cytometry, HEK-293 cells transfected with human 5T4, PE secondary [II)B]

Binder | Kd [1] [nM] | koff [1] [s⁻¹] | kon [1] [M⁻¹ s⁻¹] | corrected association response [2] [nm] | corrected association response [3] [nm] | corrected association response [4] [nm] | corrected association response [5] [nm] | corrected association response [6] [nm] | Kd [7] [nM] | koff [7] [s⁻¹] | kon [7] [M⁻¹ s⁻¹] | corrected association response [8] [nm] | corrected association response [9] [nm] | binding result [10] | corrected association response [11] [nm] | corrected association response [12] [nm] | EC50 (read off the curve) [13] [µg/mL]
B1 | 2.6 | 0.00068 | 270000 | -0.02 | 0.02 | 0.86 | 0.08 | -0.01 | 6.3 | 0.00087 | 140000 | 0.05 | 0.16 | binds | -0.03 | -0.02 | –
B2 | 2.5 | 0.00081 | 330000 | -0.02 | 0.01 | 0.86 | 0.07 | -0.01 | 11 | 0.0015 | 140000 | 0.05 | 0.16 | binds | -0.02 | -0.02 | ~0.02
